The results in this text go back to patent US20200399355A1 (University of California, published 2020).

Assay [1] has as its target biotinylated CV peptide (Innovagen), CV60-75, on streptavidin. Put plainly: flow cytometry of transduced Tregs stained with biotinylated-CV-peptide/streptavidin-FITC tetramer (y axis, 'CAR+ cells') and EGFRt antibody (x axis).
The target is the same in assay [2]. Put plainly: flow cytometry of transduced Tregs stained with biotinylated-CV-peptide/streptavidin-FITC tetramer (y axis, 'CAR+ cells') and EGFRt antibody (x axis); number printed under the right half of the panel, taken as the lower right quadrant.
Assay [3] deals with T1, Human CV peptide 60-75 (biotinylated citrullinated vimentin peptide) (human, also: biotinylated, position not given here).
T1 construct: Captured through biotin on streptavidin (ELISA plate or SPR chip); also called human citrullinated vimentin
T1 peptide: VYAT[Cit]SSAV[Cit]L[Cit]SSVP
The experiment in a line: SPR (Biacore T100), biotinylated CV peptide immobilised on streptavidin-coated chip, scFv injected. The protocol:
(§1) Assessment of the binding specificity and affinity of BVCA1 antibodies and scFv to CV peptide: The binding specificity of BVCA1 IgG and scFv were assessed by ELISA. 96-well ELISA plates were coated 0/N at 4° C. with 50 μl Streptavidin at 10m/ml. Wells were washed three times and blocked with 2000 of 1×PBS 1% BSA for 1 h at RT and washed again. 1000 of biotinylated peptides at 10 ug/ml diluted in PBS 1% BSA were added and incubated for 1 h at RT. Wells were then washed three times. 1000 of BVCA1 IgG or scFv or isotype control were added at various concentrations (serial dilution). […] Reaction was stopped with 50 11.1 of NaOH 3M after 15 to 30 min and absorbance was read in a microplate reader at 405 nm. Kinetics and affinities of BVCA1 Ig and scFv to CV peptide were analyzed by surface plasmon resonance using Biacore T100 (GE healthcare). […]

For assay [4], the target named is T1, Human CV peptide 60-75 (biotinylated …). The experiment in a line: ELISA, biotinylated peptide on streptavidin-coated plate, scFv detected with anti-c-Myc 9E10 and anti-mouse IgG-AP, absorbance 405 nm. As for the experimental part: as §1
In assay [5] the target is T2, Murine CV peptide 60-75 (biotinylated citrullinated vimentin peptide) (murine, also: biotinylated, position not given here).
T2 construct: Captured through biotin on streptavidin in ELISA; also called murine citrullinated vimentin
T2 peptide: AYVT[Cit]SSAV[Cit]L[Cit]SSVP
The description is as above. As for the experimental part: as §1

For assay [6], the target named is T1, Human CV peptide 60-75 (biotinylated …). The experiment in a line: SPR (Biacore T100), biotinylated CV peptide on streptavidin-coated sensor chip, scFv injected from 400nM down to 12.5nM; fit table under the sensorgrams, column KD (M). The protocol:
as §1

Assay [7] has the same target. Put plainly: SPR (Biacore T100), biotinylated CV peptide on streptavidin-coated sensor chip, scFv injected from 400nM down to 12.5nM; fit table under the sensorgrams, column kd (1/s). The protocol: as §1
For assay [8] the target is unchanged. Put plainly: SPR (Biacore T100), biotinylated CV peptide on streptavidin-coated sensor chip, scFv injected from 400nM down to 12.5nM; fit table under the sensorgrams, column ka (1/Ms). The protocol:
as §1

Square brackets hold non-standard residues; d marks the D form. Ends that are not written are not given here. Cit = NC(=O)NCCC[C@H](N)C(=O)O

In the case of CD19.41BBz-CAR on human Tregs, the % of cells CVpep-SA-FITC+ EGFRt+ (upper right quadrant) in assay [1] was found to be 0.5%. The molecule also displayed a % of cells CVpep-SA-FITC- EGFRt+ (lower right quadrant; the number stands below the panel) in assay [2] of 63.4%.

In assay [1], CD19.28z-CAR on human Tregs came in with a % of cells CVpep-SA-FITC+ EGFRt+ (upper right quadrant) of 1.5% and a % of cells CVpep-SA-FITC+ EGFRt- (upper left quadrant) of 0.1%. Besides, the % of cells CVpep-SA-FITC- EGFRt+ (lower right quadrant; the number stands below the panel) in assay [2] turned out to be 72.9%.

B1: BVCA1 scFv (soluble CV-specific scFv, VH-linker-VL) (scFv)
scFv: EVKLIESGGGLVEPGRSLRLACTTSGFTFADYGLSWFRQGPGKGLEWVGFTGPKHLGETTECAPSVEDRCTISRDDSKSTVYLQMHRLQHEDTAVYFCVGPWFGDLLMWGQGTLVTVSSASSGGSTSGSGKPGSGEGSSGSARAIQMTQSPSSLSASVGDRVSITCRATQDISTSLGWYHQRPGKAPRLLIYGASKVQTGVPSRFSGNGSGTEFTLTISSLQPEDIGTYYCLQDDGFPFTVGQGTKLDIKRAAA
notes: Produced in E. coli periplasm; also called anti-CV scFv; single-chain variable fragment (scFv) synthesized from BVCA1 antibody; not shown: tags of the pSYN-expressed protein (detected with anti-c-Myc 9E10, purified on Ni-NTA)
Take B1: the Kd in assay [3] and in assay [6] was 198 nM each time. The “EC50 (read off the curve)” value in assay [4] and in assay [5] was about 2 ng/mL in each case. Besides, in assay [7], the koff came out at 0.00377 s⁻¹. The kon in assay [8] was found to be 19000 M⁻¹ s⁻¹.

B2: CV.41BBz-CAR (Anti-CV CAR-41BBz) on human Tregs (protein)
chain: EVKLIESGGGLVEPGRSLRLACTTSGFTFADYGLSWFRQGPGKGLEWVGFTGPKHLGETTECAPSVEDRCTISRDDSKSTVYLQMHRLQHEDTAVYFCVGPWFGDLLMWGQGTLVTVSSASSGGSTSGSGKPGSGEGSSGSARAIQMTQSPSSLSASVGDRVSITCRATQDISTSLGWYHQRPGKAPRLLIYGASKVQTGVPSRFSGNGSGTEFTLTISSLQPEDIGTYYCLQDDGFPFTVGQGTKLDIKRAAAIEVMYPPPYLDNEKSNGTIIHVKGKHLCPSPLFPGPSKPFWVLVVVGGVLACYSLLVTVAFIIFWVKRGRKKLLYIFKQPFMRPVQTTQEEDGCSCRFPEEEEGGCELRVKFSRSADAPAYQQGQNQLYNELNLGRREEYDVLDKRRGRDPEMGGKPRRKNPQEGLYNELQKDKMAEAYSEIGMKGERRRGKGHDGLYQGLSTATKDTYDALHMQALPPR
In assay [1], B2 yielded a % of cells CVpep-SA-FITC+ EGFRt+ (upper right quadrant) of 55.4%, a % of cells CVpep-SA-FITC+ EGFRt- (upper left quadrant) of 0.6% and a % of cells CVpep-SA-FITC- EGFRt+ (lower right quadrant) of 18.9%.

B3: CV.28z-CAR (Anti-CV CAR-CD28z) on human Tregs (protein)
chain: EVKLIESGGGLVEPGRSLRLACTTSGFTFADYGLSWFRQGPGKGLEWVGFTGPKHLGETTECAPSVEDRCTISRDDSKSTVYLQMHRLQHEDTAVYFCVGPWFGDLLMWGQGTLVTVSSASSGGSTSGSGKPGSGEGSSGSARAIQMTQSPSSLSASVGDRVSITCRATQDISTSLGWYHQRPGKAPRLLIYGASKVQTGVPSRFSGNGSGTEFTLTISSLQPEDIGTYYCLQDDGFPFTVGQGTKLDIKRAAAIEVMYPPPYLDNEKSNGTIIHVKGKHLCPSPLFPGPSKPFWVLVVVGGVLACYSLLVTVAFIIFWVRSKRSRLLHSDYMNMTPRRPGPTRKHYQPYAPPRDFAAYRSRVKFSRSADAPAYQQGQNQLYNELNLGRREEYDVLDKRRGRDPEMGGKPRRKNPQEGLYNELQKDKMAEAYSEIGMKGERRRGKGHDGLYQGLSTATKDTYDALHMQALPPR
In assay [1], B3 returned a % of cells CVpep-SA-FITC+ EGFRt+ (upper right quadrant) of 47.5%, a % of cells CVpep-SA-FITC+ EGFRt- (upper left quadrant) of 0.6% and a % of cells CVpep-SA-FITC- EGFRt+ (lower right quadrant) of 20.7%.
